Data as given in patent US5318897.

T1: Boc-L-R-R-MCA
T1 sequence (peptide, N-terminal Boc; C-terminal methylcoumarinamide (MCA)): LRR

T2: Z-R-R-MCA
T2 sequence (peptide, N-terminal Z; C-terminal methylcoumarinamide (MCA)): RR

T3: vasoactive intestinal peptide (VIP)
T3 sequence (peptide, C-terminal amide (--CO--NH2)): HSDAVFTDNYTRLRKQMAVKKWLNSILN


Columns and labels:
Boc-L-R-R-MCA = molecular target: T1, Boc-L-R-R-MCA
Z-R-R-MCA = molecular target: T2, Z-R-R-MCA
[1] = molecular target: T3, vasoactive intestinal peptide (VIP)
[2] = molecular target: T3, vasoactive intestinal peptide (VIP); assay: binding studies under conditions that did not permit VIP hydrolysis (high ionic strength)

Molecule | fluorescence of the leaving group methylcoumarinamide (Boc-L-R-R-MCA) | fluorescence of the leaving group methylcoumarinamide (P-F-R-MCA) | fluorescence of the leaving group methylcoumarinamide (Z-R-R-MCA) | Km [1] | kcat [1] | Kd [2]
bovine pancreatic trypsin (from UniProt P00760) (enzyme) | 263 units | 194 units | 179 units | – | – | –
monoclonal antibody c23.5 (IgG2a, kappa) (antibody, V domains shown) VH: EVQLQESGGGLVKPGGSLKLSCAASGFTFSIYGMSWFRQTPEKRLEWVATISGGDTYTYYPDSVKGRFTISRDNAKNNLFLQMSSLRSEDTALYFCGRGIAYWGQGTLVTVSA VL: DIVLTQSPASQSASLGESVTITCLASQTIGTWLPWYQQKLGKSPQLLIYAATSLADGVPSRFSGSGSATKFSFKISSLQAEDFVSYNCQHLYSTPLTFGGGTKL | < 1 unit | – | < 1 unit | 2 nM | 1.33e-06 s⁻¹ | 3.4 nM
